# Data published in patent publication US20250236667A1, “ANTIBODIES TO MUTANT CALRETICULIN AND USES THEREOF” (CENTRAL ADELAIDE LOCAL HEALTH NETWORK INC, priority 2021, published 2025).
# T1: full-length 30 amino acid CALR mutant neoepitope peptide (peptide used for immunisation) (human)
# T1 construct: also called full-length peptide
# T1 peptide: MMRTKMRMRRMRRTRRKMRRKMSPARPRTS
# T2: thrombopoietin receptor (TpoR) (UniProt P40238 26-635, limits assumed)
# T2 construct: whole, on cells; It was immunoprecipitated with anti-FLAG beads, so the expressed TpoR evidently carries a FLAG tag; The construct and the position of the tag are not described; also called TPO receptor
# T2 sequence (looked up): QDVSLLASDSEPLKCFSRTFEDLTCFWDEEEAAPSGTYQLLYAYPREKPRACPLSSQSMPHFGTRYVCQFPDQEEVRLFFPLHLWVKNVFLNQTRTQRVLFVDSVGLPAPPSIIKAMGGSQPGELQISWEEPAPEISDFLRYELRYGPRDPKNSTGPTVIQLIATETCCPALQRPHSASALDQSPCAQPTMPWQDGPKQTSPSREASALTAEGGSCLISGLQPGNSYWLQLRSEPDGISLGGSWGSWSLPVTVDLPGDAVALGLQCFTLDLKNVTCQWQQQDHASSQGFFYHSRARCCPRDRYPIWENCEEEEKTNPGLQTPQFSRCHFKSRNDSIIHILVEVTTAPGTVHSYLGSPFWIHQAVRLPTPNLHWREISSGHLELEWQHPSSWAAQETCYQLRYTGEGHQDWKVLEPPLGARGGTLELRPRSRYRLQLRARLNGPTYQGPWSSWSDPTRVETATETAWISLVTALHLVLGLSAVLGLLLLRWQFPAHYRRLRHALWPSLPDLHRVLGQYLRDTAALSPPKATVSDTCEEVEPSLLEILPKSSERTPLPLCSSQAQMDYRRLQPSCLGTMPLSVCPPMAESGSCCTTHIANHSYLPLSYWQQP
# B1: wild type calreticulin (CALR) (other, human, UniProt P27797 18-417, looked up)
# chain: EPAVYFKEQFLDGDGWTSRWIESKHKSDFGKFVLSSGKFYGDEEKDKGLQTSQDARFYALSASFEPFSNKGQTLVVQFTVKHEQNIDCGGGYVKLFPNSLDQTDMHGDSEYNIMFGPDICGPGTKKVHVIFNYKGKNVLINKDIRCKDDEFTHLYTLIVRPDNTYEVKIDNSQVESGSLEDDWDFLPPKKIKDPDASKPEDWDERAKIDDPTDSKPEDWDKPEHIPDPDAKKPEDWDEEMDGEWEPPVIQNPEYKGEWKPRQIDNPDYKGTWIHPEIDNPEYSPDPSIYAYDNFGVLGLDLWQVKSGTIFDNFLITNDEAYAEEFGNETWGVTKAAEKQMKDKQDEEQRLKEEEEDKKRKEEEEAEDKEDDEDKDEDEEDEEDKEEDEEEDVPGQAKDEL
# notes: also called CALR^WT; endogenous wild type CALR
# Key:
# [1] = test system: healthy cord blood CD34+ cells; test: cells; format: cell-based, human; details: Homo sapiens, 288 h, 12 days, read-out: inhibition of megakaryocyte formation
# Procedure: Umbilical cord blood (UCB) was collected with written consent from full-term deliveries at the Women's Health Unit, Lyell McEwin Hospital (Adelaide, South Australia) or the Department of Obstetrics and Gynecology, Medical University of Graz (Austria) with institutional review board approval (IRB approval: 31-322 ex 18/19; HREC/20/WCHN/65). Samples were processed using a Ficoll-Paque (GE Healthcare) density gradient to isolate mononuclear cells (800×g, room temperature, 30 minutes, deceleration off), followed by red cell lysis (ammonium-chloride-potassium lysing buffer) to remove remaining red blood cells. CD34 enrichment was performed by magnetic cell separation using CD34 Microbead kit (Miltenyi Biotech). Alternatively, purified CD34+ cells from cord-blood were purchased from Lonza. CD34+ cells with a purity above 90% were either cryopreserved or directly cultured in serum-free stem cell retention media (StemSpan SFEMII, Stemcell Technologies, Vancouver, BC, Canada) supplemented with human recombinant SCF, TPO, FLT3, IL-6 (all 20 ng/mL), UM729 (1.75 uM) and StemReginin 1 (SR1, 300 nM). All cytokines and SRI were purchased from PeproTech (Rocky Hill, NJ, USA) whereas UM729 was purchased from Stemcell Technologies.
# For megakaryocyte differentiation assays, CD34+ cells derived from cord blood or from patient peripheral blood mononuclear fractions were plated in Megacult (MegaCult™-C Collagen and Medium with Lipids) with added IL-3 and IL-6 (10 ng/ml) in the presence or absence of 50 ng/mL TPO. Cells were plated at an initial density of 1800 cells/well and cultured for 12 days at 37° C. and 5% CO2. […] Culture media was replenished every 3 days and cells were assessed for megakaryocyte differentiation on day 12 using anti-human CD41/61 PE-Cy7 (Clone A2A9/6) and CountBright beads (Thermo Fisher) to enumerate cell numbers. […] Cells were seeded at approximately 100 cells per well and were cultured in the presence of 20 μg/mL 4D7 or control IgG antibody and scored for colony and blast forming units at 12-14 days.
# [2] = test system: 30 amino acid peptide corresponding to the C-terminal mutant CALR neoepitope sequence; test: ELISA binding to peptide; design: species or system human
# Procedure: (§1) Rats were immunised with a CALR mutant peptide “MMRTKMRMRRMRRT RRKMRRKMSPARPRTS” coupled to KLH, this peptide sequence is unique to CALR mutant. Serum from the immunised rats was screened by enzyme linked immunoassay, to verify a strong titre to the peptide immunogen, prior to performing the hybridoma fusion. Immunised rat spleen cells were harvested and a spleen single cell suspension was combined with Sp2/O myeloma cell line. The cell mixture was treated with polyethylene glycol plus DMEM prior to been plated in 96 well flat bottom plates. The expanding hybridomas were screened initially by ELISA and the positive clones were further verified by western blot, for reactivity to the expressed CALR mutant protein before subcloning the hybridomas for antibody production.
# [3] = target: T1, full-length 30 amino acid CALR mutant …; test: ELISA on peptide
# [4] = test system: TF-1 TpoR CALR^del61 cells; test: Cell proliferation, trypan blue exclusion; format: cell-based, human; details: 5 or 20 μg/mL; FIG. 8
# Procedure: […] Cells were seeded in triplicate and each well was counted in triplicate every 24 hours for 5 days using trypan blue exclusion.
# [5] = target: B1; test: Western blot of TF-1 cell extracts (hybridoma clone screen)
# Procedure: B. Replicate Scatchard analyses of 4D7 using I¹²⁵-labelled and unlabelled 4D7 bound to full-length peptide (n=3). C. […] Cells were cultured in the presence or absence of 10 ng/ml TPO (n=3). D. Paracrine CALR-mutant protein is not sufficient to maintain TPO sensitive cells in culture. TF1 TpoR and TF-1 TpoR CALR^del61 cells were seeded at the same density and cultured in the presence or absence of TPO. Cells were separated by semi-permeable membrane in a horizontal co-culture system. Cell populations on either side of the membrane were counted every 24 hours over 4 days in triplicate and representative images were taken on day 4. Exogenous CALR secreted by TF-1 TpoR CALR^del61 was unable to assist growth of factor dependent TF-1 TopR cells (n=3). E. Histogram overlays showing fluorescence intensity of unstained and PE conjugated IgG2a isotype control in TF-1, TF-1 TpoR and TF-1 TpoR CALR^del61 compared to 4D7 conjugated to PE.
# (§2) For immunoblotting of total lysates, cells were lysed in NP40 buffer containing 150 mM NaCl, 50 mM Tris pH 7.6, 1% NP-40, supplemented with protease inhibitors (Complete, Roche) and phosphatase inhibitor cocktails, and boiled for 5 minutes after addition of sample buffer (60 mM Tris pH 6.8, 5% glycerol, 1% SDS, 2% β-mercaptoethanol, 0.02% bromophenol blue) before SDS gel electrophoresis followed by Western blotting (Tvorogov et al, 2010). […]
# [6] = test system: mutant CALR protein; test: Western blot detection of mutant CALR by hybridoma clones; format: binding, human; details: cell extracts from TF-1 cells transduced with and without mutant CALR; data not shown
# Procedure: as §1
# For immunoblotting of total lysates, cells were lysed in NP40 buffer containing 150 mM NaCl, 50 mM Tris pH 7.6, 1% NP-40, supplemented with protease inhibitors (Complete, Roche) and phosphatase inhibitor cocktails, and boiled for 5 minutes after addition of sample buffer (60 mM Tris pH 6.8, 5% glycerol, 1% SDS, 2% β-mercaptoethanol, 0.02% bromophenol blue) before SDS gel electrophoresis followed by Western blotting (Tvorogov et al, 2010). Primary antibodies against pERK (#9101), pSTAT5 (#9359), ERK (#4695), Actin (#4970), Caspase 3 (#14220), wildtype CALR (#12238) were purchased from Cell Signalling. Primary antibodies against pSTATI (#612233), pSTAT3 (#612357), STATI (#610186), STAT3 (#610190), STAT5 (#610192) and Anti-phosphotyrosine 4G10 (#610012) were purchased from BD Biosciences. Mutant CALR monoclonal antibody CAL2 was purchased from Dianova (Hamburg, Germany). Immunopreciptation of TpoR was performed in standard NP40 lysis buffer with additional 50 mM iodoacetamide to avoid any de novo disulfide bond formation post lysis. To reduce IgG background during immunoprecipitation anti-FLAG conjugated to magnetic beads (Sigma, #M8823) were used. For this same reason, anti-FLAG-HRP conjugated antibodies (Sigma, #A8592) were used in western blotting.
# [7] = target: T2, thrombopoietin receptor (TpoR); test: co-immunoprecipitation with anti-FLAG (MPL/TpoR), reducing Western blot
# Procedure: B. Similar experiment using TPO-independent TF-1 TpoR CALR^del61 cells at 4 and 8 hours. C. Similar experiment shown using TPO-independent TF-1 TpoR CALR^del52 cells, 8 hours. D. Flow cytometry analysis for cell cycle distribution of TF-1 TpoR CALR^del61 cells exposed to 20 μg/mL IgG or 4D7 for 48 hours. Cells were harvested and fixed and stained with propidium iodide and their DNA contents were analysed. Results from one representative experiment shown. Percentages of cells in Sub Go, G1. S and G2/M cycle indicated. E. Western blot showing specific co-immunoprecipitation of mutant CALR^del61 cells with TpoR anti-FLAG antibody under reducing conditions detected by total and mutant specific CALR antibodies. Arrowheads represent detected CALR protein. F. Western blot showing decreased TpoR phosphorylation in a TpoR immunoprecipitated after 8 hours of 20 μg/mL 4D7 treatment compared to PBS or IgG control in TF-1 TpoR CALR^del61.
# as §2
molecule,measurement,setting,value
N#CC[C@H](C1CCCC1)n1cc(-c2ncnc3[nH]ccc23)cn1 [ruxolitinib],inhibition at 0.05 µM,"[1]; 50 nM, P=0.008",> 30%
same,inhibition at 0.1 µM,"[1]; 100 nM, P=0.07",> 30%
"2D2 rat monoclonal anti-mutant calreticulin antibody (antibody, V domains shown, also called rat anti-human mutCALR 2D2) VH: QVQLQQSGAELTKPGSSVKISCKTSGYTFTTYDISWIKQRPGQALEWIGAIYPGGVTTGYNEKFKGKATLTVDKSSNTAFMQLSSLTPEDTAVYYCARWGHTTGTRFDHWGQGVMVTVSS VL: DVLLTQTPVSLSVSLGDQASISCRSSQSLEYSDGYTYLEWYVQKPGQSPQLLIYEVSDRFSGVPDRFIGSGSGTDFTLKISRVEPEDLGVYYCFQATHDPPTFGGGTKLELK",binding to peptide by ELISA,[2],positive binding
same,binding result,[3],binds
same,proliferation of cytokine-independent TF1 TpoR/mutCALR cells,[4],inhibit proliferation
same,binding result,[5],no binding
same,detecting mutant but not wild type CALR protein by Western blotting,[6],superior activity
B1,binding result,[7],no binding
